From patent US20210292426A1 come the findings set out here.

Assay [1] has as its target human CD40 expressed on cells (human) (UniProt P25942). Kind of assay: flow cytometry, primary human B cells. In general terms: Flow cytometry measures light scatter and fluorescence of single cells or particles in a stream.
The target in assay [2] is human CD40 extracellular domain with C-terminal His-AviTag (human) (UniProt P25942). Kind of assay: SPR (Biacore), antibody captured, CD40 ECD analyte.
The target of assay [3] is human CD40 expressed on cells (human) (UniProt P25942). Put plainly: flow cytometry, Raji cells.

B1: P1AD4470 (CD40 IgG1, control) (antibody, from a related filing, V domains shown)
VH: EVQLVESGGGLVQPGGSLRLSCAASGYSFTGYYIHWVRQAPGKGLEWVARVIPNAGGTSYNQKFKGRFTLSVDNSKNTAYLQMNSLRAEDTAVYYCAREGIYWWGQGTLVTVSS
VL: DIQMTQSPSSLSASVGDRVTITCRSSQSLVHSNGNTFLHWYQQKPGKAPKLLIYTVSNRFSGVPSRFSGSGSGTDFTLTISSLQPEDFATYFCSQTTHVPWTFGQGTKVEIKR
In general, EC50 refers to the midpoint of the concentration-response curve. Read a low EC50 as a more potent agent. Broadly, the Kd is the equilibrium constant for the complex coming apart. What is called koff is the first-order rate constant of dissociation. As usually defined, the kon is a measure of how fast the partners come together. Higher therefore signals faster complex formation. B1 gave an EC50 in assay [1] of 0.333 nM. Further, in assay [2], the Kd is 4.6 nM, the koff is 0.00781 s⁻¹ and the association rate constant (kon) came to 1.69e+06 M⁻¹ s⁻¹. This molecule returned a concentration giving a half-maximal response (EC50) in assay [3] of 0.09 µg/mL.
